This is an account of results in paper PMC11481871, “Discovery of GuaB inhibitors with efficacy against Acinetobacter baumannii infection” (mBio, 2024).

Broadly, the stoichiometry N is the number of molecules, sites or subunits per partner or assembly.

Series [1] deals with the molecule itself. Description: crystal structure; S. aureus GuaBΔCBS (27 mg/mL) with 5 mM IMP, vapor diffusion at room temperature, 0.1 M bicine pH 9.0, 0.1 M NaCl, 30% PEG550 MME; crystals soaked with inhibitor; space group I4, one molecule in the asu.
Series [2] concerns the molecule itself. Description: crystal structure; A. baumannii GuaBΔCBS (21 mg/mL) with 5 mM IMP, vapor diffusion at room temperature, 0.1 M HEPES pH 7.5, 20% isopropanol, 10% PEG4000; crystals soaked with inhibitor; space group P21, eight copies in the asu.
Series [3] concerns the molecule itself. Description: crystal structure; E. coli GuaBΔCBS (28 mg/mL) with 5 mM IMP, vapor diffusion at room temperature, 0.1 M bicine pH 9.0, 20% PEG 6000; crystals soaked with inhibitor; space group I4, one molecule in the asu.

B1: S. aureus GuaBΔCBS (W2-F488_ΔE92-R219) (enzyme)
chain: WESKFAKESLTFDDVLLIPAQSDILPKDVDLSVQLSDKVKLNIPVISAGMDTVTESKMAIAMARQGGLGVIHKNMGVEEQADEVQKVKRSLLVAAAIGISKDTDIRAQKLVEAGVDVLVIDTAHGHSKGVIDQVKHIKKTYPEITLVAGNVATAEATKDLFEAGADIVKVGIGPGSICTTRVVAGVGVPQITAIYDCATEARKHGKAIIADGGIKFSGDIIKALAAGGHAVMLGSLLAGTEESPGATEIFQGRQYKVYRGMGSLGAMEKGSNDRYFQEDKAPKKFVPEGIEGRTAYKGALQDTIYQLMGGVRAGMGYTGSHDLRELREEAQFTRMGPAGLAESHPHNIQITKESPNYSF
notes: Crystallised with IMP and soaked with G1, G2 or G8; one molecule in the asymmetric unit, the tetramer arises from the fourfold axis of space group I4; also called S.a; GuaB; source: E. coli BL21 (DE3) Gold, purified (HisTrap FF, Superdex200 size-exclusion; same protocol as A. baumannii GuaBΔCBS)
On to B1, for which, in series [1], the “stoichiometry N” value was found to be 4.

B2: A. baumannii GuaB with CBS domain deletion (M1-G488_ΔM93-R201) (enzyme)
chain: MLTIVQEALTFDDVLLLPAYSTVLPKDVSLKTRLTRGIYLNIPLVSAAMDTVTESRMAIAMAQNGGIGILHKNMDIAAQAAEVRRVKKFEAGKAESYPNSCKDDLGRLRVGAAVGTGADTPSRVEALVEAGVDVIVVDTAHGHSAGVIERVRWVKQNFPQVQVIGGNIATGDAALALLDAGADAVKVGIGPGSICTTRIVAGIGMPQISAIDSVASALKDQIPLIADGGIRFSGDMAKAIGAGASTIMVGSLLAGTEEAPGEVEFFQGRYYKAYRGMGSLGAMAGATGSADRYFQDSKAGAEKLVPEGIEGRVPYKGPMGNIVHQMMGGLRSSMGYTGSAVIEDLRQNAKFVKITSAGMSESHVHDVTITKEAPNYRVG
notes: cloned into a modified pET52b vector; Eight copies in the asymmetric unit (octamer of two tetramers); also called A. baumannii GuaBΔCBS; GuaBΔCBS; source: E. coli BL21 (DE3) Gold, purified (HisTrap FF, Superdex200 size-exclusion)
For B2, the “stoichiometry N” value in series [2] turned out to be 8.

B3: E. coli GuaBΔCBS (L2-S488_ΔE90-R217) (enzyme, Escherichia coli, UniProt P0ADG7 2-488, looked up)
chain: LRIAKEALTFDDVLLVPAHSTVLPNTADLSTQLTKTIRLNIPMLSAAMDTVTEARLAIALAQEGGIGFIHKNMSIERQAEEVRRVKKHLRVGAAVGAGAGNEERVDALVAAGVDVLLIDSSHGHSEGVLQRIRETRAKYPDLQIIGGNVATAAGARALAEAGCSAVKVGIGPGSICTTRIVTGVGVPQITAVADAVEALEGTGIPVIADGGIRFSGDIAKAIAAGASAVMVGSMLAGTEESPGEIELYQGRSYKSYRGMGSLGAMSKGSSDRYFQSDNAADKLVPEGIEGRVAYKGRLKEIIHQQMGGLRSCMGLTGCGTIDELRTKAEFVRISGAGIQESHVHDVTITKESPNYRLGS
notes: GuaB (inosine-5'-monophosphate dehydrogenase) of Escherichia coli, residues L2-S488 with the CBS domains (E90-R217) deleted; Crystallised with IMP and soaked with G1, G2 or G8; one molecule in the asymmetric unit, the tetramer arises from the fourfold axis of space group I4; also called E.c; GuaB; source: E. coli BL21 (DE3) Gold, purified (HisTrap FF, Superdex200 size-exclusion; same protocol as …)
With B3, the “stoichiometry N” value in series [3] stood at 4.
